Results from paper PMC5749897.
Where two headings read alike, the source gives them in different places.

What was measured:
[1] = target: AP33; experiment: flow cytometry; details: read off a plot
[2] = target: AR1A; experiment: flow cytometry
[3] = target: CD81-Fc (K124T), a mutant that reduces CD81 dimerization (UniProt P60033); experiment: ELISA; details: first point of the titration, dilution 1/1; parent: est. 0.65; read off a plot
[4] = target: HCV1; experiment: ELISA; details: first point of the titration, dilution 1/100; parent: est. 1.3; read off a plot
[5] = target: recombinant CD81-LEL Fc-fusion protein; experiment: ELISA; details: first point of the titration, dilution 1/1; parent: est. 0.42; read off a plot
[6] = target: A4; experiment: flow cytometry or ELISA; details: read off a plot
[7] = target: AP33; experiment: flow cytometry or ELISA; details: read off a plot
[8] = target: HCV1; experiment: flow cytometry or ELISA; details: read off a plot
[9] = target: AR1B; experiment: flow cytometry
[10] = target: HCV1; experiment: flow cytometry; details: read off a plot
[11] = target: E1E2 F627A, ELISA antigen (transfected cell lysate) (hepatitis C virus genotype 1a, strain H77); experiment: ELISA
[12] = target: E1E2 I622A, ELISA antigen (transfected cell lysate) (hepatitis C virus genotype 1a, strain H77); experiment: ELISA
[13] = target: E1E2 D279A (H77 alanine-scanning library clone) (hepatitis C virus genotype 1a, strain H77); experiment: flow cytometry on cells
[14] = target: E1E2 G278A (H77 alanine-scanning library clone) (hepatitis C virus genotype 1a, strain H77); experiment: flow cytometry on cells
[15] = target: E1E2 I622A (H77 alanine-scanning library clone) (hepatitis C virus genotype 1a, strain H77); experiment: flow cytometry on cells
[16] = target: E1E2 W616A (H77 alanine-scanning library clone) (hepatitis C virus genotype 1a, strain H77); experiment: flow cytometry on cells
[17] = target: E1E2 Y276A (H77 alanine-scanning library clone) (hepatitis C virus genotype 1a, strain H77); experiment: flow cytometry on cells
[18] = target: E1E2 Y613A (plasmid H77c, no V5 tag) (hepatitis C virus genotype 1a, strain H77); experiment: flow cytometry on cells
[19] = target: soluble WT E2c (E2 core domain); experiment: ELISA; details: first point of the titration, dilution 1/1; parent: est. 0.42; read off a plot
[20] = target: A4; experiment: flow cytometry; details: read off a plot
[21] = target: AR2A; experiment: flow cytometry; details: read off a plot
[22] = target: AR3A; experiment: flow cytometry; details: read off a plot

CD81-Fc (K124T), a mutant that reduces CD81 dimerization, sequence (P60033 whole entry K124T, looked up, tested part not stated): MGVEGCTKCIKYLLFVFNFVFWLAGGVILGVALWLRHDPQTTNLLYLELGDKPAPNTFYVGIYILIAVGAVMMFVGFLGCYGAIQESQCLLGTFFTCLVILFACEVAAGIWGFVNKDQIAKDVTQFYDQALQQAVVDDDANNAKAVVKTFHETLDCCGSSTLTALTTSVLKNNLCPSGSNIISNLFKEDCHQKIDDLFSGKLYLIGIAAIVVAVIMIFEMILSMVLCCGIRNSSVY

“wild-type HCV E1E2 (genotype 1a, strain H77) expression construct with C-terminal V5 epitope tag Y485A” was tested, and the percent of parent [1] was 104 % of WT and the percent of parent ([2]; read off a plot) was 43 % of WT.
Substance soluble WT E2c (E2 core domain) I622A has a response [3] of 1.5 OD450, a response [4] of 1.3 OD450 and a response [5] of 1.4 OD450.
“wild-type HCV E1E2, plasmid H77c (no V5 tag) C452A” was tested, and the percent of parent [6] was 93 % of WT, the percent of parent [7] was 60 % of WT and the percent of parent [8] was 77 % of WT.
In the case of “wild-type HCV E1E2 (genotype 1a, strain H77) expression construct with C-terminal V5 epitope tag N548A”, the percent of parent ([2]; read off a plot) was 23 % of WT and the percent of parent [9] was < 0 % of WT.
For “soluble WT E2c (E2 core domain) I622A; F627A”, the response [3] was 1.2 OD450, the response [4] was 1.3 OD450 and the response [5] was 0.94 OD450.
With “wild-type HCV E1E2 (genotype 1a, strain H77) expression construct with C-terminal V5 epitope tag G495A” the percent of parent ([2]; read off a plot) was 26 % of WT and the percent of parent [10] was 92 % of WT.
Work on “recombinant CD81-LEL Fc-fusion protein (Fc fusion)” yielded an enhancement of binding over wild type [11] of 13%, an enhancement of binding over wild type [12] of 56% and a % CD81 binding (of wild type) [13] of 48%. The % CD81 binding (of wild type) [14] was 50%, the enhancement of binding over wild type [15] was 49% and the % binding activity [16] was under 3%. It also gave a % of wild-type reactivity (% of wild-type reactivity) [16] of under 25, a % CD81 binding (of wild type) [17] of 50% and a % binding activity [18] of under 3%. The % of wild-type reactivity (% of wild-type reactivity) [18] was under 25.
With “wild-type HCV E1E2, plasmid H77c (no V5 tag) D346A” the percent of parent [6] was 95 % of WT, the percent of parent [7] was 100 % of WT and the percent of parent [8] was 98 % of WT.
In the case of “wild-type HCV E1E2, plasmid H77c (no V5 tag) Y624A”, the percent of parent [6] was 43 % of WT and the percent of parent [7] was 38 % of WT.
With “wild-type HCV E1E2 (genotype 1a, strain H77) expression construct with C-terminal V5 epitope tag L438A” the percent of parent [1] was 76 % of WT and the percent of parent [10] was 75 % of WT.
For “wild-type HCV E1E2 (genotype 1a, strain H77) expression construct with C-terminal V5 epitope tag C503A”, the percent of parent ([2]; read off a plot) was 200 % of WT.
With “wild-type HCV E1E2 (genotype 1a, strain H77) expression construct with C-terminal V5 epitope tag W437A” the percent of parent [1] was 77 % of WT and the percent of parent [10] was 95 % of WT.
In the case of “wild-type HCV E1E2, plasmid H77c (no V5 tag) W712A”, the percent of parent [6] was 80 % of WT, the percent of parent [7] was 81 % of WT and the percent of parent [8] was 82 % of WT.
For “recombinant CD81-LEL Fc-fusion protein K124T”, the response [19] was 0.65 OD450.
For “wild-type HCV E1E2, plasmid H77c (no V5 tag) C272A”, the percent of parent [6] was 93 % of WT, the percent of parent [7] was 85 % of WT and the percent of parent [8] was 98 % of WT.
“wild-type HCV E1E2 (genotype 1a, strain H77) expression construct with C-terminal V5 epitope tag G547A” was tested, and the percent of parent [20] was 74 % of WT, the percent of parent ([2]; read off a plot) was 18 % of WT and the percent of parent ([9]; read off a plot) was 22 % of WT. For the same substance, the percent of parent [10] was 44 % of WT.
With “wild-type HCV E1E2 (genotype 1a, strain H77) expression construct with C-terminal V5 epitope tag T518A” the percent of parent [1] was 106 % of WT, the percent of parent ([2]; read off a plot) was 100 % of WT and the percent of parent [21] was 140 % of WT. The percent of parent [10] was 100 % of WT.
“wild-type HCV E1E2, plasmid H77c (no V5 tag) K562A” was tested, and the percent of parent [6] was 77 % of WT, the percent of parent [7] was 75 % of WT and the percent of parent [8] was 95 % of WT.
In the case of “wild-type HCV E1E2 (genotype 1a, strain H77) expression construct with C-terminal V5 epitope tag P545A”, the percent of parent ([2]; read off a plot) was 18 % of WT, the percent of parent ([9]; read off a plot) was 6 % of WT and the percent of parent [10] was 92 % of WT.
“wild-type HCV E1E2 (genotype 1a, strain H77) expression construct with C-terminal V5 epitope tag W549A” was tested, and the percent of parent [2] was < 0 % of WT and the percent of parent [9] was < 0 % of WT.
“wild-type HCV E1E2 (genotype 1a, strain H77) expression construct with C-terminal V5 epitope tag Y632A” was tested, and the percent of parent [2] was < 0 % of WT.
With soluble WT E2c (E2 core domain) F627A the response [3] was 0.62 OD450, the response [4] was 1.3 OD450 and the response [5] was 0.38 OD450.
“wild-type HCV E1E2, plasmid H77c (no V5 tag) T396A” was tested, and the percent of parent [6] was 85 % of WT, the percent of parent [7] was 68 % of WT and the percent of parent [8] was 98 % of WT.
With “wild-type HCV E1E2, plasmid H77c (no V5 tag) R237A” the percent of parent [6] was 82 % of WT, the percent of parent [7] was 110 % of WT and the percent of parent [8] was 105 % of WT.
In the case of “wild-type HCV E1E2 (genotype 1a, strain H77) expression construct with C-terminal V5 epitope tag P544A”, the percent of parent ([2]; read off a plot) was 9 % of WT, the percent of parent ([9]; read off a plot) was 5 % of WT and the percent of parent [10] was 45 % of WT.
“wild-type HCV E1E2 (genotype 1a, strain H77) expression construct with C-terminal V5 epitope tag G440A” was tested, and the percent of parent [1] was 81 % of WT, the percent of parent ([2]; read off a plot) was 84 % of WT and the percent of parent [21] was 82 % of WT. For the same substance, the percent of parent [22] was 20 % of WT and the percent of parent [10] was 84 % of WT.
With “wild-type HCV E1E2, plasmid H77c (no V5 tag) Q336A” the percent of parent [6] was 88 % of WT, the percent of parent [7] was 80 % of WT and the percent of parent [8] was 88 % of WT.
